Measured values reported in US20240174744A1 (SCIRHOM, published 2024).

Columns and labels:
[1] = target: T1, dog iRhom2 full length wild type, C-terminally tagged with 3 consecutive copies of the T7 epitope (dog, UniProt Q00M95 1-827); test: FACS on MEF-DKO-iR2 Dog cells, 3 µg/ml
T1 construct: whole, on cells; also called Dog-iR2-FL-WT-T7
T1 sequence: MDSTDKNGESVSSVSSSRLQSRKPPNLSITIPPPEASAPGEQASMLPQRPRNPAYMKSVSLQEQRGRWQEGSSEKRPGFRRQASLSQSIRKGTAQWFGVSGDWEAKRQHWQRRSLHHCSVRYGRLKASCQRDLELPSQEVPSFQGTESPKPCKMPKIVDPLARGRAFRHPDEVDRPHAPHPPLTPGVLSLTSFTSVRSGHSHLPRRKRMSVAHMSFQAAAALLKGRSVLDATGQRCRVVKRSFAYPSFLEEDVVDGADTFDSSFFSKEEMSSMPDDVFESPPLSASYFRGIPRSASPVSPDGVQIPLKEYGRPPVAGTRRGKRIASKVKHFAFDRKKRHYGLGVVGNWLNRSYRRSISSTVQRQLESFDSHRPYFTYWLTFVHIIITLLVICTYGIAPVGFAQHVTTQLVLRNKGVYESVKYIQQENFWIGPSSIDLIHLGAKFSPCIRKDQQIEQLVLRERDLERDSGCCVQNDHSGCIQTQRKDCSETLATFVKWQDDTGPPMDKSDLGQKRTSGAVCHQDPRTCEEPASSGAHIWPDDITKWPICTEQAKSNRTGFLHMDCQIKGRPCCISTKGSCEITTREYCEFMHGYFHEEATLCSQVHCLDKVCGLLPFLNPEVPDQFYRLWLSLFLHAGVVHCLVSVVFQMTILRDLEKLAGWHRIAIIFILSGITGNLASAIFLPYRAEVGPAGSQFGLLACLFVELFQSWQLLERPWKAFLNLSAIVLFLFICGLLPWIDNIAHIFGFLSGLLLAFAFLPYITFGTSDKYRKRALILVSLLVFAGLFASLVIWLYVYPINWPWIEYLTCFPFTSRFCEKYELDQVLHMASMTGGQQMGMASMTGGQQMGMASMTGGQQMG
Description: In brief, immortalized MEF-DKO-EV control cells, MEF-DKO-rhesus-iR2-FL-WT-T7 cells, MEF-DKO-cyno-iR2-FL-WT-T7 cells, MEF-DKO-dog-iR2-FL-WT-T7 cells and MEF-DKO-rabbit-iR2-FL-WT-T7 cells, as well as their respective iRhom1 counterparts, were harvested with 10 mM EDTA in PBS, washed and resuspended in FACS buffer (PBS, 3% FBS, 0.05% sodium azide), and seeded in Nunc U-bottom 96-well plates (Thermo Fisher Scientific, USA) at approximately 3×10⁵ cells per well. To pellet cells and remove supernatants, the plates were centrifuged at 1,500 rpm and 4° C. for 3 minutes. For primary staining, cells were resuspended in 100 μl per well of either FACS buffer alone (controls), mouse monoclonal anti-T7 IgG (Merck Millipore, USA) at 3 μg/ml FACS buffer or the antibodies of the present disclosure also at 3 μg/ml FACS buffer and incubated on ice for 1 hour. Afterwards, plates were centrifuged at 1,500 rpm and 4° C. for 3 minutes and washed twice with 200 μl per well of FACS buffer. For secondary staining, cells were spun down and resuspended in 100 μl per well of PE-conjugated goat anti-mouse IgG F(ab′)2 detection fragment (Dianova, Germany) diluted 1:100 in FACS buffer. Protected from light, the cell suspensions were incubated on ice for 1 hour. […] Finally, cells were resuspended in 150 μl per well of FACS buffer and analyzed using a BD Accuri™ C6 Plus flow cytometer (Becton Dickinson, Germany).

[2] = target: T2, hiR2-FL-P533-T7 (human iRhom2 full length with deletion of P533, 3 x T7 tag) (human, UniProt Q6PJF5 1-856); test: FACS on MEF-DKO-hiR2-FL-P533- -T7 cells
T2 construct: The change is a deletion of one residue, not a substitution
T2 sequence: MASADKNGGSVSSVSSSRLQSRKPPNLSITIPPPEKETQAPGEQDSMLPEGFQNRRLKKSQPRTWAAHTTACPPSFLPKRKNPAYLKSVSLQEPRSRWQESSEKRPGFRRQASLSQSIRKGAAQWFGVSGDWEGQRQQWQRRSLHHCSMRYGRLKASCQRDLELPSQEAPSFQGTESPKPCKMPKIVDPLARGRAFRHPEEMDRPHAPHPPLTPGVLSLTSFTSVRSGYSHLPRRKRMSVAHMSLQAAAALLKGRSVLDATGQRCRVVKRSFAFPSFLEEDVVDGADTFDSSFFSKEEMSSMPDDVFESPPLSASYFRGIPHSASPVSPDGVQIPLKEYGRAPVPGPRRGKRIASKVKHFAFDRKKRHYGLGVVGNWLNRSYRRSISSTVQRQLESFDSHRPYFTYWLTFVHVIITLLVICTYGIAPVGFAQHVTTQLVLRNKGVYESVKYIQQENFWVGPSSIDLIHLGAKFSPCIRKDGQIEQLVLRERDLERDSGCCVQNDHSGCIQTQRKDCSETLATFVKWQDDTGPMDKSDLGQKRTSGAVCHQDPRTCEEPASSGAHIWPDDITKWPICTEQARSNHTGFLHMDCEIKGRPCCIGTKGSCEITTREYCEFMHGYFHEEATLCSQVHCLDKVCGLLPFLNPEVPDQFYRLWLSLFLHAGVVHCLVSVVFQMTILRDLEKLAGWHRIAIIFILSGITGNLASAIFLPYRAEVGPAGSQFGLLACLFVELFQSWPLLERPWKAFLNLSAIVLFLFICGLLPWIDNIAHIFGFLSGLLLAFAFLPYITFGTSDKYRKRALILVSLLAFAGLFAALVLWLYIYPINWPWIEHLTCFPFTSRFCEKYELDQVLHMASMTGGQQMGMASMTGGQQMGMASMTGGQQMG

Binder | binding result [1] | binding result [2]
antibody 16 (antibody, V domains shown, Mouse IgG, kappa light chain; also called clone #16; m16) VH: QVTLKESGPGILQPSQTLSLTCSFSGFSLSTFALGVGWIRQPSGRGLEWLAHIWWDDDKYYNPALKSRLTISKDTSKNHVFLKIANVDTADTATYYCARITTYYYGMDYWGQGTSVTVSS VL: DIVLSQSPATLSVTPGDSVSLFCRASQSIGNHLHWYQQESHASPRLLIKYASQSISGIPSRFSGSGSGTDFTLSINSVETEDFGMYFCQQSYNWPLTFGAGTKLELK | binds | 
antibody 3 (antibody, V domains shown, Mouse IgG, kappa light chain; also called clone #3; purified antibody 3) VH: QVTLKESGPGILQPSQTLSLTCSFSGFSLTTFAMGIGWVRQPSGKGLEWLAHIWWDGEKYNNPVLKSRLTISKDTSKNQVFLRIANVDTPDTATYYCARISSIYYIIDNWGQGTSVTVSS VL: DIVLTQSPATLSVTPGHSVSLSCRASQSISNNLHWYQKKSHESPRLLIKYVSQSISGIPSRFSGSGSGTDFTLSINSVETEDFGMYFCQQSYNWPLTFGAGTKLELK |  | no binding (tested: 3 µg/ml)
